Key:
[1] = target: eIF5B Domain-4 (eIF5B-D4) (human); test: fluorescence polarisation
[2] = target: eIF5B-D34 (eIF5B domains D3 and D4) (human); test: fluorescence polarisation
[3] = target: eIF1AΔC (eIF1A missing the entire 26-residue C-terminal tail) (human); test: NMR titration
[4] = target: fluorescein-labeled synthetic eIF1A-CT7 peptide (human); test: fluorescence polarisation

Chain of eIF5B-D34 (eIF5B domains D3 and D4) (human) (O60841 whole entry, the tested form may be a part): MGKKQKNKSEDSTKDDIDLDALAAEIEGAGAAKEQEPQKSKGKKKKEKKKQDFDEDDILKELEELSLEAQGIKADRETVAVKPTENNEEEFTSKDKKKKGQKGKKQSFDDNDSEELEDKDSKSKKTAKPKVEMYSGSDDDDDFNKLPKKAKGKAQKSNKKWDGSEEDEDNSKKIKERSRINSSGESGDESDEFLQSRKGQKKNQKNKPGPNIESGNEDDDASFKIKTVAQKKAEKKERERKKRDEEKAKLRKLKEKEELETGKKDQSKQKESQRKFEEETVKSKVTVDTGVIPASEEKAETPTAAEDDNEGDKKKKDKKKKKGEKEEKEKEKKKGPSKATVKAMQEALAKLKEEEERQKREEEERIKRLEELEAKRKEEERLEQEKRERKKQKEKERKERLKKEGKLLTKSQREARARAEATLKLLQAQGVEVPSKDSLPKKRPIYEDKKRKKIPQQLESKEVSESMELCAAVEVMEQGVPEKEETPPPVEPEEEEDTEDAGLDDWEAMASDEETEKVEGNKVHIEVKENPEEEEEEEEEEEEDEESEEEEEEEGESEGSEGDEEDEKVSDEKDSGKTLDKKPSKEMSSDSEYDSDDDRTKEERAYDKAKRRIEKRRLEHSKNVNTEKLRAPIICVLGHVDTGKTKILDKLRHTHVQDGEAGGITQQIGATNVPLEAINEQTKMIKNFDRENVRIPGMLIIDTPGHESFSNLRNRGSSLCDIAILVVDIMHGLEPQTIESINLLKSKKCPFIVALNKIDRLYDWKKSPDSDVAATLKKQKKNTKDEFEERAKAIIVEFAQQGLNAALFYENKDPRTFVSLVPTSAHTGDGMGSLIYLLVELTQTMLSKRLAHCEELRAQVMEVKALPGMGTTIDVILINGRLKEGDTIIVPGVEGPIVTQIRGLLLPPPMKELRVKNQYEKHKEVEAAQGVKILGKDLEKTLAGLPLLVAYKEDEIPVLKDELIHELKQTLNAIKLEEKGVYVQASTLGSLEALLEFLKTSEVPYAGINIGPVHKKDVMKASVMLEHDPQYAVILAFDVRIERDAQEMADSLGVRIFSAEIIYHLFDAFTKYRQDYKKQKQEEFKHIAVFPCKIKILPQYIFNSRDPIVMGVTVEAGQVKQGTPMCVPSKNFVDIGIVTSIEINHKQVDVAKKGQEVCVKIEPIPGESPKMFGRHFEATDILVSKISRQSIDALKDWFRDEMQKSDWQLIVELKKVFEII
Chain of eIF5B Domain-4 (eIF5B-D4) (human) (O60841 whole entry, the tested form may be a part): as above

| Substance | Kd [1] [µM] | Kd [2] [µM] | Kd [3] [µM] | Kd [4] [µM] |
| --- | --- | --- | --- | --- |
| eIF1A C-terminal tail (eIF1A-CTT), 26 residues (peptide) | 12 | 18 |  |  |
| eIF1A-CT16 (the 16 C-terminal residues in eIF1A) (peptide) | 12 | 23 |  |  |
| eIF5B Domain-3 (eIF5B-D3) (domain or fragment) |  |  | < 1000 |  |
| eIF5B Domain-4 (eIF5B-D4) (domain or fragment) |  |  |  | 12 |
| eIF5B-D34 (eIF5B domains D3 and D4) (domain or fragment) |  |  |  | 27 |
| eukaryotic translation initiation factor 1A (eIF1A), full-length (from UniProt P47813 1-144) (natural protein) | 39 | 41 |  |  |
